Substitutions are numbered along the chain they refer to.
Legend:
Assay in all cases: cell-based or functional assay
[1] = biological target: T1, KCNQ3 potassium channel subunit (human, UniProt O43525 1-872)
T1 sequence (looked up): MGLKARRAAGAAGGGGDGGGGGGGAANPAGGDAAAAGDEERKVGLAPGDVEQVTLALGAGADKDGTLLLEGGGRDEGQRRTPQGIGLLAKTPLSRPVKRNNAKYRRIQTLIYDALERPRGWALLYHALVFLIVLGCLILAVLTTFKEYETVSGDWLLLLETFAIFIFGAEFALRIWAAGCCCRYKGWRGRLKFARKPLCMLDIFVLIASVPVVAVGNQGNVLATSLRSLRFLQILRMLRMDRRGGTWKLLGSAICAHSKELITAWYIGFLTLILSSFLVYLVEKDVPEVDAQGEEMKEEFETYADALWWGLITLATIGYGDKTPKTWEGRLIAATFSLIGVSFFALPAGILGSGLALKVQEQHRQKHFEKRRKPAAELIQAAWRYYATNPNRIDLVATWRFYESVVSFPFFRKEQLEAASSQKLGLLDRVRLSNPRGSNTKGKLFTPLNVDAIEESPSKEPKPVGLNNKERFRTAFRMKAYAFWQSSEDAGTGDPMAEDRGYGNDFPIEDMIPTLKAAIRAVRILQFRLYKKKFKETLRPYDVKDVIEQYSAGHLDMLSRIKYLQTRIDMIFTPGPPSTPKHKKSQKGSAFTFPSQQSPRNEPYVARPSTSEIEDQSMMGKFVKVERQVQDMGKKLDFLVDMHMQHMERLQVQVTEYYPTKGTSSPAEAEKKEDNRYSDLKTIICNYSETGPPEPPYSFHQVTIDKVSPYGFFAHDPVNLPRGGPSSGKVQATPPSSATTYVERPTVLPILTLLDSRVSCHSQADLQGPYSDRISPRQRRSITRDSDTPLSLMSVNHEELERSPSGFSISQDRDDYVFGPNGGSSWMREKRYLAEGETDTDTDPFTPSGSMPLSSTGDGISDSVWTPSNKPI

KCNQ3 (T323Y) mutant = biological target: T2, KCNQ3 (T323Y) mutant (human, UniProt O43525 1-872)
T2 sequence (looked up): T1 sequence (looked up) with T323Y

[2] = biological target: T3, KCNQ3(G318S) dominant negative mutant (human, UniProt O43525 1-872)
T3 sequence (looked up): T1 sequence (looked up) with G318S

- IC50 of extracellular TEA (small molecule) on currents of co-expressed KCNQ5 and KCNQ3 (1:1); KCNQ5 homomers 71 mM [1]: ~200 mM
- IC50 of extracellular TEA (small molecule) on currents of KCNQ5 co-expressed with KCNQ3 (T323Y); KCNQ5 homomers 71 mM (KCNQ3 (T323Y) mutant): ~30 mM
- current relative to WT KCNQ5 currents on co-injection with the dominant negative mutant [2]: < 50%
B1: KCNQ5 potassium channel subunit (other)
chain: MKDVESGRGRVLLNSAAARGDGLLLLGTRAATLGGGGGGLRESRRGKQGARMSLLGKPLSYTSSQSCRRNVKYRRVQNYLYNVLERPRGWAFIYHAFVFLLVFGCLILSVFSTIPEHTKLASSCLLILEFVMIVVFGLEFIIRIWSAGCCCRYRGWQGRLRFARKPFCVIDTIVLIASIAVVSAKTQGNIFATSALRSLRFLQILRMVRMDRRGGTWKLLGSVVYAHSKELITAWYIGFLVLIFSSFLVYLVEKDANKEFSTYADALWWGTITLTTIGYGDKTPLTWLGRLLSAGFALLGISFFALPAGILGSGFALKVQEQHRQKHFEKRRNPAANLIQCVWRSYAADEKSVSIATWKPHLKALHTCSPTKKEQGEASSSQKLSFKERVRMASPRGQSIKSRQASVGDRRSPSTDITAEGSPTKVQKSWSFNDRTRFRPSLRLKSSQPKPVIDADTALGTDDVYDEKGCQCDVSVEDLTPPLKTVIRAIRIMKFHVAKRKFKETLRPYDVKDVIEQYSAGHLDMLCRIKSLQTRVDQILGKGQITSDKKSREKITAEHETTDDLSMLGRVVKVEKQVQSIESKLDCLLDIYQQVLRKGSASALALASFQIPPFECEQTSDYQSPVDSKDLSGSAQNSGCLSRSTSANISRGLQFILTPNEFSAQTFYALSPTMHSQATQVPISQSDGSAVAATNTIANQINTAPKPAAPTTLQIPPPLPAIKHLPRPETLHPNPAGLQESISDVTTCLVASKENVQVAQSNLTKDRSMRKSFDMGGETLLSVCPMVPKDLGKSLSVQNLIRSTEELNIQLSGSESSGSRGSQDFYPKWRESKLFITDEEVGPEETETDTFDAAPQPAREAAFASDSLRTGRSRSSQSICKAGESTDALSLPHVKLK

Source: patent US20040180405A1 (NEUROSEARCH A S, published 2004)
